Source: the RNAGym collection of RNA variant scans (doi:10.1093/molbev/msab373)

B1: Azoarcus group I ribozyme (parent)
chain: GUGCCUUGCGCCGGGAAACCACGCAAGGGAUGGUGUCAAAUUCGGCGAAACCUAAGCGCCCGCCCGGGCGUAUGGCAACGCCGAGCCAAGCUUCGGCGCCUGCGCCGAUGAAGGUGUAGAGACUAGACGGCACCCACCUAAGGCAAACGCUAUGGUGAAGGCAUAGUCCAGGGAGUGGCGAAAGUCACACAAACCGG

Variants of: B1
Assay: reverse-splicing fitness (ratio to wild type); higher = more active; in vitro selection; Mg2+ level not given
Method in brief: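 An in vitro group I ribozyme library with randomized positions was T7-transcribed and gel-purified. In triplicate, 10 pmol RNA in EPPS pH 7.5 was reacted with 50 pmoles of a 30-nt RNA substrate for 1 h at 37 °C across several added MgCl2 levels (1–48 mM), then stopped with EDTA. Products were reverse transcribed from a substrate-complementary primer, PCR-amplified and sequenced (HiSeq 4000). Fitness is a variant's read proportion after selection over that before, normalised to wild type.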

Variant | reverse-splicing fitness
GUGCCUUGCGCCGGGAAACCACGCAAGGGAUGGUGUCAAAUUCGGCGAAACCUAAGCGCCCGCCCGGGCGUAUGGCAACGCAGAGCCAAGCUUCGGCGCCUGCGCCGAUGAAGGUGUAGCGACUAGACGGCACCCACCUAAGGCCAACGGUAUGGUGAAGGCAUAGUCCAGGGAGUGGCGAAAGUCACACAAACCGG | 0.0192
GUGCCUUGCGCCGGGAAACCACGCAAGGGAUGGUGUCAAAUUCGGCGAAACCUAAGCGCCCGCCCGGGCGUAUGGCAACGCAGAGCCAAGCUUCGGCGCCUGCGCCGAUGAAGGUGUAGCGACUAGACGGCACCCACCUAAGGCCAACGGUAUGGUGAAGGCAUAGUCAAGGGAGGGGCGAAAGUCACACAAACCGG | 0.00632
GUGCCUUGCGCCGGGAAACCACGCAAGGGAUGGUGUCAAAUUCGGCGAAACCUAAGCGCCCGCCCGGGCGUAUGGCAACGCAGAGCCAAGCUUCGGCGCCUGCGCCGAUGAAGGUGUAGCGACUAGACGGCACCCACCUAAGGCCAACGGUAUGGUGAAGGCAUAGUCAAGGGAGCGGCGAAAGUCACACAAACCGG | 0.00816
GUGCCUUGCGCCGGGAAACCACGCAAGGGAUGGUGUCAAAUUCGGCGAAACCUAAGCGCCCGCCCGGGCGUAUGGCAACGCAGAGCCAAGCUUCGGCGCCUGCGCCGAUGAAGGUGUAGCGACUAGACGGCACCCACCUAAGGCCAACGGUAUGGUGAAGGCAUAGUCAAGGGAGAGGCGAAAGUCACACAAACCGG | 0.0105
GUGCCUUGCGCCGGGAAACCACGCAAGGGAUGGUGUCAAAUUCGGCGAAACCUAAGCGCCCGCCCGGGCGUAUGGCAACGCAGAGCCAAGCUUCGGCGCCUGCGCCGAUGAAGGUGUAGCGACUAGACGGCACCCACCUAAGGCCAACGAUAUGGUGAAGGCAUAGUCGAGGGAGAGGCGAAAGUCACACAAACCGG | 0.032
GUGCCUUGCGCCGGGAAACCACGCAAGGGAUGGUGUCAAAUUCGGCGAAACCUAAGCGCCCGCCCGGGCGUAUGGCAACGCAGAGCCAAGCUUCGGCGCCUGCGCCGAUGAAGGUGUAGCGACUAGACGGCACCCACCUAAGGCCAACGAUAUGGUGAAGGCAUAGUCGAGGGAGCGGCGAAAGUCACACAAACCGG | 0.0244
GUGCCUUGCGCCGGGAAACCACGCAAGGGAUGGUGUCAAAUUCGGCGAAACCUAAGCGCCCGCCCGGGCGUAUGGCAACGCAGAGCCAAGCUUCGGCGCCUGCGCCGAUGAAGGUGUAGCGACUAGACGGCACCCACCUAAGGCCAACGAUAUGGUGAAGGCAUAGUCGAGGGAGGGGCGAAAGUCACACAAACCGG | 0.00625
GUGCCUUGCGCCGGGAAACCACGCAAGGGAUGGUGUCAAAUUCGGCGAAACCUAAGCGCCCGCCCGGGCGUAUGGCAACGCAGAGCCAAGCUUCGGCGCCUGCGCCGAUGAAGGUGUAGCGACUAGACGGCACCCACCUAAGGCCAACGAUAUGGUGAAGGCAUAGUCUAGGGAGUGGCGAAAGUCACACAAACCGG | 0.00877
GUGCCUUGCGCCGGGAAACCACGCAAGGGAUGGUGUCAAAUUCGGCGAAACCUAAGCGCCCGCCCGGGCGUAUGGCAACGCAGAGCCAAGCUUCGGCGCCUGCGCCGAUGAAGGUGUAGCGACUAGACGGCACCCACCUAAGGCCAACGAUAUGGUGAAGGCAUAGUCUAGGGAGAGGCGAAAGUCACACAAACCGG | 0.0144
GUGCCUUGCGCCGGGAAACCACGCAAGGGAUGGUGUCAAAUUCGGCGAAACCUAAGCGCCCGCCCGGGCGUAUGGCAACGCAGAGCCAAGCUUCGGCGCCUGCGCCGAUGAAGGUGUAGCGACUAGACGGCACCCACCUAAGGCCAACGAUAUGGUGAAGGCAUAGUCUAGGGAGCGGCGAAAGUCACACAAACCGG | 0.0111
GUGCCUUGCGCCGGGAAACCACGCAAGGGAUGGUGUCAAAUUCGGCGAAACCUAAGCGCCCGCCCGGGCGUAUGGCAACGCAGAGCCAAGCUUCGGCGCCUGCGCCGAUGAAGGUGUAGCGACUAGACGGCACCCACCUAAGGCCAACGAUAUGGUGAAGGCAUAGUCUAGGGAGGGGCGAAAGUCACACAAACCGG | 0.00481
GUGCCUUGCGCCGGGAAACCACGCAAGGGAUGGUGUCAAAUUCGGCGAAACCUAAGCGCCCGCCCGGGCGUAUGGCAACGCAGAGCCAAGCUUCGGCGCCUGCGCCGAUGAAGGUGUAGCGACUAGACGGCACCCACCUAAGGCCAACGGUAUGGUGAAGGCAUAGUCAAGGGAGUGGCGAAAGUCACACAAACCGG | 0.00891
GUGCCUUGCGCCGGGAAACCACGCAAGGGAUGGUGUCAAAUUCGGCGAAACCUAAGCGCCCGCCCGGGCGUAUGGCAACGCAGAGCCAAGCUUCGGCGCCUGCGCCGAUGAAGGUGUAGCGACUAGACGGCACCCACCUAAGGCCAACGAUAUGGUGAAGGCAUAGUCCAGGGAGAGGCGAAAGUCACACAAACCGG | 0.0107
GUGCCUUGCGCCGGGAAACCACGCAAGGGAUGGUGUCAAAUUCGGCGAAACCUAAGCGCCCGCCCGGGCGUAUGGCAACGCAGAGCCAAGCUUCGGCGCCUGCGCCGAUGAAGGUGUAGCGACUAGACGGCACCCACCUAAGGCCAACGAUAUGGUGAAGGCAUAGUCCAGGGAGCGGCGAAAGUCACACAAACCGG | 0.0155
GUGCCUUGCGCCGGGAAACCACGCAAGGGAUGGUGUCAAAUUCGGCGAAACCUAAGCGCCCGCCCGGGCGUAUGGCAACGCAGAGCCAAGCUUCGGCGCCUGCGCCGAUGAAGGUGUAGCGACUAGACGGCACCCACCUAAGGCCAACGAUAUGGUGAAGGCAUAGUCCAGGGAGGGGCGAAAGUCACACAAACCGG | 0.00599
